Patent publication KR20220012826A (dated 2022)
Like-named read-outs stand apart in the source and are kept apart here.

Columns and labels:
[1] = target: T1, SARS-CoV-2 spike D614, on pseudovirus (SARS-CoV-2, UniProt P0DTC2 14-1273); assay: cell-based or functional assay
[2] = target: T1, SARS-CoV-2 spike D614, on pseudovirus; assay: cell-based or functional assay; remark: listed apart in the source
[3] = target: T1, SARS-CoV-2 spike D614, on pseudovirus; assay: cell-based or functional assay; remark: listed apart in the source
SARS-CoV S1 = SARS-CoV S1 (SARS-CoV, UniProt P59594 14-667); assay: Octet (BLI) specificity, Fig. 12
MERS-CoV RBD = target: T2, MERS-CoV RBD (MERS-CoV, UniProt K9N5Q8 367-606); assay: Octet (BLI) specificity, Fig. 12
T2 sequence: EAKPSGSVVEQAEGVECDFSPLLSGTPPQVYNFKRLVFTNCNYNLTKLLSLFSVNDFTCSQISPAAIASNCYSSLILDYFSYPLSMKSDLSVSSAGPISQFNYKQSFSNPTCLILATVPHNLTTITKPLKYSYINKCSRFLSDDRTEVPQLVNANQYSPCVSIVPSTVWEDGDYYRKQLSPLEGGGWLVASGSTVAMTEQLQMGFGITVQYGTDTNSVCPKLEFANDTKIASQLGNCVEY

B1: No. 139 항체 (Full IgG) (antibody, V domains shown)
VH: QITLKESGPTLVKPTQTLTLTCSFSGFSLSTSGVGVGWIRQPPGKALEWLALIDWDDNKYHTTSLKTRLTISKDTSKNQVVLTMTNMDPVDTATYYCARIPGFLRYRNRYYYYGMDVWGQGTTVTVSS
VL: ELVLTQPPSVSAAPGQKVTISCSGSSSNIGNNYVSWYQQLPGTAPKLLIYDNNKRPSGIPDRFSGSKSGTSATLGITGLQTGDEADYYCGTWDSSLSAGVFGGGTELTVL
notes: also called CT-P59; Regdanvimab
[1]
  pseudovirus 중화능 IC50: 0.378 ng/mL
[2]
  pseudovirus 중화능 IC50: 0.35 ng/mL
[3]
  pseudovirus 중화능 IC50: 0.535 ng/mL
SARS-CoV S1
  binding result: no binding
MERS-CoV RBD
  binding result: no binding
